The values below come from PMC8054193.

In the assay the target is Strep-SUMO-Bos1.

Sequence of Ssa1 (P10591 whole entry): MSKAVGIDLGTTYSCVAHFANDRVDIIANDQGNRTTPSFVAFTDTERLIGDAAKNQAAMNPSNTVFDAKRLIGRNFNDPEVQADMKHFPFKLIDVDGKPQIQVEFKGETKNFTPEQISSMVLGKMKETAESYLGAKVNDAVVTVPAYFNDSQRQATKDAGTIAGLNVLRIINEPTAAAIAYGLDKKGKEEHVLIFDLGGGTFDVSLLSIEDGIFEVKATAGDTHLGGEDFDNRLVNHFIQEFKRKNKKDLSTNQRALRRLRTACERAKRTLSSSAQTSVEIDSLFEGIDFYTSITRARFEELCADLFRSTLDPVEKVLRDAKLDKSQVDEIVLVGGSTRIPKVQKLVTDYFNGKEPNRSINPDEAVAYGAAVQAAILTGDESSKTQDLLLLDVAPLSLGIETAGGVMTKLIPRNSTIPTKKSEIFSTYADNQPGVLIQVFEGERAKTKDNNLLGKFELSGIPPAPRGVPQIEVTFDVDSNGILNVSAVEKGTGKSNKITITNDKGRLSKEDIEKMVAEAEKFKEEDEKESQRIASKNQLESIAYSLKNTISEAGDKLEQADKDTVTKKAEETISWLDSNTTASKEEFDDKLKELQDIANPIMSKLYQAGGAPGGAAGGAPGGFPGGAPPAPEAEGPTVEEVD

“Ssa1 (from UniProt P10591 1-642) (natural protein)” registered a K (Soluble) from the Ssa1 concentration dependence of soluble Bos1 (sedimentation of 3 μM Bos1, Western blot, fit to Equation 2), Ssa1 alone of 0.73 µM; a K (Soluble) from the Ssa1 concentration dependence of soluble Bos1 (sedimentation of 3 μM Bos1, Western blot, fit to Equation 2), equimolar Ssa1 and Ydj1 of 0.014 µM.
